Data taken from patent US20150232576A1.

Legend:
[1] = molecular target: Phosphorylated His-p38 (p38 MAP kinase) (UniProt Q16539); test: BLI, immobilised p38, k2/k1
[2] = molecular target: Phosphorylated His-p38 (p38 MAP kinase) (UniProt Q16539); test: optical biosensing (BLI), summary statement
[3] = molecular target: Phosphorylated His-p38 (p38 MAP kinase) (UniProt Q16539); test: refers to the biosensor experiments described above
[4] = molecular target: Phosphorylated His-p38 (p38 MAP kinase) (UniProt Q16539); test: BLI, biotinylated p38 on streptavidin sensors, 696 nM eNOS analyte
[5] = molecular target: Phosphorylated His-p38 (p38 MAP kinase) (UniProt Q16539); test: BLI, immobilised p38, eNOS analyte, two-component sequential model
[6] = molecular target: Phosphorylated His-p38 (p38 MAP kinase) (UniProt Q16539); test: BLI, immobilised p38, from the pseudo first order rate at 232 nM eNOS
[7] = molecular target: Phosphorylated His-p38 (p38 MAP kinase) (UniProt Q16539); test: BLI, biotinylated p38 on streptavidin sensors, 696 nM eNOS, 300 s dissociation in buffer
[8] = molecular target: Phosphorylated His-p38 (p38 MAP kinase) (UniProt Q16539); test: BLI, immobilised p38, 696 nM nNOS analyte, compared with eNOS

endothelial nitric oxide synthase (eNOS), purified, unphosphorylated, sequence (P29473 whole entry): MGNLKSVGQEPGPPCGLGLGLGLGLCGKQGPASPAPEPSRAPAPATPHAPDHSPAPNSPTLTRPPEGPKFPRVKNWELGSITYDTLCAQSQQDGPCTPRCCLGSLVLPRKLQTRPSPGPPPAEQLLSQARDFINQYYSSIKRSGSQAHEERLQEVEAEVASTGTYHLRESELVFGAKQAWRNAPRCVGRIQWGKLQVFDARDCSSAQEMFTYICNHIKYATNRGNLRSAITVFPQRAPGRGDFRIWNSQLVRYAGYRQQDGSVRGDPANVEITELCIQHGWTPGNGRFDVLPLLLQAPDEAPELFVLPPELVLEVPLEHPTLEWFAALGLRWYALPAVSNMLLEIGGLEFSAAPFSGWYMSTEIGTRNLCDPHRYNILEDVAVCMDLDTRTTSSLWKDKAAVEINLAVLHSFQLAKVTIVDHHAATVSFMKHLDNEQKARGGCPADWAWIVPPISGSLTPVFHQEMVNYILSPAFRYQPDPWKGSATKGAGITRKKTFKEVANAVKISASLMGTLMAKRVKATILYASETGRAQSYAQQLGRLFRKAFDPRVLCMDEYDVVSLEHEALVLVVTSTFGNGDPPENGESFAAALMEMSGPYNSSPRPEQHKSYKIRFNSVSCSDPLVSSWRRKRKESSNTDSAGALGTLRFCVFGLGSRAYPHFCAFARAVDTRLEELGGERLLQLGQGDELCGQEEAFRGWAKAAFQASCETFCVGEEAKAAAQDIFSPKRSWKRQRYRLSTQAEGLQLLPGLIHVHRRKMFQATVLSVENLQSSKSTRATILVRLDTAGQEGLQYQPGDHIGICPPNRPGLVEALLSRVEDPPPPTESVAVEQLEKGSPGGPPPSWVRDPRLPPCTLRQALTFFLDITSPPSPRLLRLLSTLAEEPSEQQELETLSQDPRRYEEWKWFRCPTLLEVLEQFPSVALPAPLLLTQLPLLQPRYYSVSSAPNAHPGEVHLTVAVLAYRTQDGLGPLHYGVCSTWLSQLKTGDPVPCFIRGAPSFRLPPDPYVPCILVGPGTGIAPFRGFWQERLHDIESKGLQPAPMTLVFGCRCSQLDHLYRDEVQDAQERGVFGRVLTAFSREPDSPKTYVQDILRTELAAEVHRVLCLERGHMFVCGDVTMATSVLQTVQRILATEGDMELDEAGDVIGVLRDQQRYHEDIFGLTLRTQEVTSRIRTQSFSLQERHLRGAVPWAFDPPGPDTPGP

endothelial nitric oxide synthase (eNOS), purified, unphosphorylated (from UniProt P29473 1-1205) (enzyme)
Kd [1]: 80 nM | Kd [2]: 100 nM | kon [2]: 150000 M⁻¹ s⁻¹ | Kd [3]: 0.05 to 0.1 nM | half time of the initial association component [4]: 10 s | k1 (pseudo first order forward rate, first step) at 26 nM eNOS [5]: 0.0025 s⁻¹ | k1 (pseudo first order forward rate, first step) at 77 nM eNOS [5]: 0.0008 s⁻¹ | k1 (pseudo first order forward rate, first step) at 232 nM eNOS [5]: 0.03 s⁻¹ | k1 (pseudo first order forward rate, first step) at 696 nM eNOS [5]: 0.1 s⁻¹ | k2 (reverse rate, first step) at 26 nM eNOS [5]: 0.01 s⁻¹ | k2 (reverse rate, first step) at 77 nM eNOS [5]: 0.01 s⁻¹ | k2 (reverse rate, first step) at 232 nM eNOS [5]: 0.01 s⁻¹ | k2 (reverse rate, first step) at 696 nM eNOS [5]: 0.01 s⁻¹ | k3 (forward rate, second step) at 26 nM eNOS [5]: 0.0002 s⁻¹ | k3 (forward rate, second step) at 77 nM eNOS [5]: 0.006 s⁻¹ | k3 (forward rate, second step) at 232 nM eNOS [5]: 0.0002 s⁻¹ | k3 (forward rate, second step) at 696 nM eNOS [5]: 0.006 s⁻¹ | k4 (reverse rate, second step) at 26 nM eNOS [5]: 0.001 s⁻¹ | k4 (reverse rate, second step) at 77 nM eNOS [5]: 0.001 s⁻¹ | k4 (reverse rate, second step) at 232 nM eNOS [5]: 0.001 s⁻¹ | k4 (reverse rate, second step) at 696 nM eNOS [5]: 0.001 s⁻¹ | kon [6]: 130000 M⁻¹ s⁻¹ | percent of the rapid phase binding dissociated in buffer [7]: 25%

neuronal nitric oxide synthase (nNOS) (from UniProt P29476 1-1429) (enzyme)
fold slower binding than eNOS [8]: 30 fold
